# Data: IntAct's records for PubMed 29039417
# B1: BBSome complex member BBS2 (Homo sapiens), Q9BXC9 (parent)
# chain: MLLPVFTLKLRHKISPRMVAIGRYDGTHPCLAAATQTGKVFIHNPHTRNQHVSASRVFQSPLESDVSLLSINQAVSCLTAGVLNPELGYDALLVGTQTNLLAYDVYNNSDLFYREVADGANAIVLGTLGDISSPLAIIGGNCALQGFNHEGSDLFWTVTGDNVNSLALCDFDGDGKKELLVGSEDFDIRVFKEDEIVAEMTETEIVTSLCPMYGSRFGYALSNGTVGVYDKTSRYWRIKSKNHAMSIHAFDLNSDGVNELITGWSNGKVDARSDRTGEVIFKDNFSSAIAGVVEGDYRMDGHIQLICCSVDGEIRGYLPGTAEMRGNLMDTSAEQDLIRELSQKKQNLLLELRNYEENAKAELASPLNEADGHRGIIPANTRLHTTLSVSLGNETQTAHTELRISTSNDTIIRAVLIFAEGIFTGESHVVHPSIHNLSSSICIPIVPPKDVPVDLHLKAFVGYRSSTQFHVFESTRQLPRFSMYALTSLDPASEPISYVNFTIAERAQRVVVWLGQNFLLPEDTHIQNAPFQVCFTSLRNGGHLHIKIKLSGEITINTDDIDLAGDIIQSMASFFAIEDLQVEADFPVYFEELRKVLVKVDEYHSVHQKLSADMADHSNLIRSLLVGAEDARLMRDMKTMKSRYMELYDLNRDLLNGYKIRCNNHTELLGNLKAVNQAIQRAGRLRVGKPKNQVITACRDAIRSNNINTLFKIMRVGTASS
# partner: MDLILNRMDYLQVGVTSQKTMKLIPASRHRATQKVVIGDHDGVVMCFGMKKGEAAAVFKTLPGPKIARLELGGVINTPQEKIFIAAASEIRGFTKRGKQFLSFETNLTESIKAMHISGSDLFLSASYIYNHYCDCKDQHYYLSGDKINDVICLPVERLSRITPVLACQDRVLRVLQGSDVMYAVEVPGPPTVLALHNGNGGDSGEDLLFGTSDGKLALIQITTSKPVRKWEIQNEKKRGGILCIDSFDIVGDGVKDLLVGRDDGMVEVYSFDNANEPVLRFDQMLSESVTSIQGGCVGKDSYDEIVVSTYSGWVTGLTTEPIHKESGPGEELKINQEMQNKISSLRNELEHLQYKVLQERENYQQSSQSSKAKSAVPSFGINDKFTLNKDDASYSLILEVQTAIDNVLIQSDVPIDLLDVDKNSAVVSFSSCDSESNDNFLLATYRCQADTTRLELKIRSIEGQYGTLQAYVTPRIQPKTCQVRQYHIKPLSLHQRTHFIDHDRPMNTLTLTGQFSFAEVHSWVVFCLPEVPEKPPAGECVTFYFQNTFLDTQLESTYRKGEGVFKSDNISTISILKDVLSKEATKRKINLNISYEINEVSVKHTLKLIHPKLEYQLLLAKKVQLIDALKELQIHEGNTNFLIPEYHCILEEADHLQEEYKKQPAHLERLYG
# Variants of: B1
# Settings: with BBS7, Q8IWZ6-2
row,effect of a mutation on the interaction,Variant
1,with no effect,T524K
2,with no effect,T524E
3,with no effect,T524A
4,with no effect,I554E
5,with no effect,I554A
6,with no effect,I554K
7,with no effect,I526A
8,with no effect,I526K
9,with no effect,I526E
10,with no effect,H525E
11,with no effect,H525K
12,with no effect,H525A
13,disrupting interaction strength,L544K
14,with no effect,L544A
15,disrupting interaction strength,L544S
16,disrupting interaction strength,L544E
17,with no effect,R539E
18,with no effect,R539K
19,with no effect,R539A
20,with no effect,N557K
21,with no effect,N557E
22,with no effect,N557A
23,with no effect,R506E
24,with no effect,R506K
25,disrupting interaction strength,R506A

row,effect of a mutation on the interaction,Variant
1,with no effect,A529E
2,with no effect,A529K
3,with no effect,G552E
4,with no effect,G552A
5,disrupting interaction strength,G552R
6,with no effect,G552K
7,with no effect,K549E
8,with no effect,K549A
9,with no effect,E553A
10,with no effect,E553K
11,with no effect,E505A
12,with no effect,E505K
13,disrupting interaction strength,W513R
14,disrupting interaction strength,W513G
15,disrupting interaction strength,W513K
16,disrupting interaction strength,W513E
17,disrupting interaction strength,W513A
18,with no effect,E522A
19,with no effect,E522K
20,with no effect,Q516A
21,with no effect,Q516K
22,with no effect,Q516E
23,with no effect,R509A
24,with no effect,R509E
25,with no effect,R509K

row,effect of a mutation on the interaction,Variant
1,with no effect,N528E
2,with no effect,N528K
3,with no effect,N528A
4,with no effect,F535A
5,disrupting interaction strength,F535K
6,with no effect,F535E
7,with no effect,L519A
8,disrupting interaction strength,L519E
9,with no effect,L519K
10,disrupting interaction strength,V510K
11,with no effect,V510E
12,with no effect,V510A
13,with no effect,I503A
14,disrupting interaction strength,I503K
15,with no effect,I503E
16,with no effect,C534A
17,with no effect,C534K
18,with no effect,C534E
19,with no effect,H545A
20,with no effect,H545E
21,disrupting interaction strength,H545K
22,with no effect,Q508K
23,with no effect,Q508A
24,with no effect,Q508E
25,with no effect,P530K

row,effect of a mutation on the interaction,Variant
1,with no effect,P530E
2,with no effect,P530A
3,with no effect,G515A
4,with no effect,G515E
5,with no effect,G515K
6,with no effect,N517E
7,disrupting interaction strength,N517K
8,with no effect,N517A
9,with no effect,T555E
10,disrupting interaction strength,T555H
11,with no effect,T555K
12,with no effect,T555A
13,with no effect,N540K
14,disrupting interaction strength,N540A
15,with no effect,N540E
16,with no effect,V511A
17,with no effect,V511E
18,with no effect,V511K
19,with no effect,I548E
20,with no effect,I548K
21,with no effect,I548A
22,with no effect,D559A
23,with no effect,S537A
24,with no effect,S537E
25,with no effect,S537K

row,effect of a mutation on the interaction,Variant
1,with no effect,P521A
2,with no effect,P521E
3,with no effect,P521K
4,with no effect,H543A
5,with no effect,H543E
6,with no effect,H543K
7,with no effect,A504K
8,with no effect,A504E
9,disrupting interaction strength,A504S
10,with no effect,K547A
11,disrupting interaction strength,K547E
12,with no effect,T536E
13,with no effect,T536A
14,with no effect,T536K
15,with no effect,L550A
16,with no effect,L550E
17,with no effect,L550K
18,with no effect,T558A
19,with no effect,T558E
20,with no effect,T558K
21,with no effect,G542A
22,with no effect,G542K
23,with no effect,G542E
24,with no effect,D523K
25,with no effect,D523E

row,effect of a mutation on the interaction,Variant
1,with no effect,D523A
2,disrupting interaction strength,F501S
3,with no effect,S551E
4,with no effect,S551A
5,with no effect,S551K
6,with no effect,I556A
7,with no effect,I556E
8,with no effect,I556K
9,with no effect,I546A
10,with no effect,I546K
11,with no effect,I546E
12,with no effect,F531A
13,with no effect,F531E
14,with no effect,F531K
15,with no effect,Q527K
16,with no effect,Q527A
17,with no effect,Q527E
18,with no effect,L514A
19,with no effect,L514E
20,with no effect,L514K
21,with no effect,G541K
22,with no effect,G541A
23,with no effect,G541E
24,disrupting interaction strength,L538G
25,with no effect,L538E

row,effect of a mutation on the interaction,Variant
1,disrupting interaction strength,L538R
2,with no effect,L538K
3,with no effect,L538A
4,with no effect,A507E
5,with no effect,A507K
6,with no effect,T502K
7,with no effect,T502E
8,with no effect,T502A
9,with no effect,V512K
10,with no effect,V512A
11,with no effect,V512E
12,with no effect,L520A
13,with no effect,L520E
14,with no effect,L520K
15,with no effect,V533K
16,disrupting interaction strength,V533E
17,with no effect,V533A
18,disrupting interaction strength,F518L
19,with no effect,F518K
20,with no effect,F518A
21,with no effect,F518E
22,with no effect,Q532E
23,disrupting interaction strength,Q532A
24,with no effect,Q532K
